{
  "source": "patent US20180117171A1",
  "about": "“IMMUNOCONJUGATES FOR PROGRAMMING OR REPROGRAMMING OF CELLS” (President and Fellows of Harvard College, priority 2015, published 2018)",
  "molecules": {"B1": {"name": "ovalbumin: model antigen protein (protein, UniProt P01012 2-386, looked up)", "Ovalbumin": "GSIGAASMEFCFDVFKELKVHHANENIFYCPIAIMSALAMVYLGAKDSTRTQINKVVRFDKLPGFGDSIEAQCGTSVNVHSSLRDILNQITKPNDVYSFSLASRLYAEERYPILPEYLQCVKELYRGGLEPINFQTAADQARELINSWVESQTNGIIRNVLQPSSVDSQTAMVLVNAIVFKGLWEKAFKDEDTQAMPFRVTEQESKPVQMMYQIGLFRVASMASEKMKILELPFASGTMSMLVLLPDEVSGLEQLESIINFEKLTEWTSSNVMEERKIKVYLPRMKMEEKYNLTSVLMAMGITDVFSSSANLSGISSAESLKISQAVHAAHAEINEAGREVVGSAEAGVDAASVSEEFRADHPFLFCIKHIATNAVLFFGRCVSP"}, "B2": {"name": "CpG-OVA conjugate: OVA protein linked through maleimide to reduced thiol-CpG (conjugate, UniProt P01012 2-386, looked up)", "Ovalbumin": "B1 Ovalbumin", "modifications": "CpG oligonucleotide via maleimide linker"}},
  "key": {"[1]": {"test_system": "antigen specific Th17 T cells", "test": "Th17 ELISpot of splenocytes challenged with MOG", "type": "in vivo", "details": "splenocytes of treated mice with EAE induced, MOG challenge", "text": "To further explore the mechanism for tolerance induction in EAE animals treated with bolus immunoconjugate, T cell analyses (ELISpot and passive EAE assays) were completed in mice that received the immunoconjugate or control therapies (FIG. 36A-C). Splenocytes from mice treated with MOG alone or Dex-MOG with EAE induced were challenged with MOG to quantitate antigen specific elaboration of IL-17."}, "[2]": {"test_system": "CD8+ T cells from OT-I mice", "test": "OT-I: DC co-culture, CFSE T cell proliferation", "type": "cell-based, mouse", "details": "dexamethasone-SIINFEKL 1.0 μM; ovalbumin 0.2 μM", "description": "Cytotoxic T-lymphocytes (CTLs) were purified using magnetic beads (Miltenyi Biotec) from the spleens of the T cell receptor (TCR) transgenic OT-I mice (Jackson Laboratories) following the manufacturer's protocol. OT-I mice express a transgenic T cell receptor that recognizes ovalbumin residues 257-264 in the context of H2Kb. The CTLs were cultured with a 1:1 ratio with BMDC for 3 days at 37° C. in R10 media. […] The cells were washed two times before culturing with the T cells. Dexamethasone-TRP-2 was made following the same solid phase method as described above (Peptide synthesizer: CS Bio, DIPEA, Piperidine, TFA, and NMP: Advanced ChemTech, DCM: Sigma, amino acids and resin: Peptides International, dexamethasone hemisuccinate: Steraloids). Three days later, the cells were harvested and analyzed by flow cytometry using the BD LSR II Fortessa. The plots for flow cytometry were obtained using FCS Express.\nCarboxyfluorescein succinimidyl ester (CFSE) labeled CD8+ T cells from TCR transgenic OT-I mice were cultured with BMDC for 3 days. […] Three days later, the cells were analyzed by flow cytometry."}, "[3]": {"test": "release of conjugate from the MPS scaffold", "type": "physicochemical", "description": "FIG. 48 is a line graph showing the evaluation of the release kinetics of the GnRH-OVA conjugate from the MPS scaffold. The conjugate was loaded into the MPS scaffold for 8 hours at room temperature (RT).\nC57bl/6J mice were immunized with MPS scaffold containing 1 ug GM-CSF and 100 ug OVA, 1 ug GM-CSF, 100 ug CpG and 100 ug OVA (MPS vaccine) or 1 ug GM-CSF and 100 ug OVA conjugated to 100 ug CpG (MPS conjugate vaccine). After 7 days, peripheral blood was analyzed using […] tetramer and the percentage of […] specific T cells within CD3+CD8+ T cells was quantified. MPS conjugate vaccine increased the presence of […] specific CD8+ T cells by 2 fold compared with the MPS vaccine (FIG. 40, bottom)."}, "[4]": {"test_system": "bone marrow derived dendritic cells (BMDC)", "test": "BMDC presentation of […] from CpG-OVA conjugate (flow cytometry)", "type": "cell-based", "details": "18 hours; compared to unconjugated CpG and OVA", "description": "CpG-OVA conjugate was cultured with bone marrow derived dendritic cells (BMDC) in vitro for 18 hours. BMDC presentation of […] was analyzed using flow cytometry and percentage of CD11c+ DCs presenting the […] peptide on the MHC-I molecule was quantified."}},
  "data": [
    {"molecule": "MEVGWYRSPFSRVVHLYRNGK [MOG alone, myelin oligodendrocyte glycoprotein residues 35-55, reference compound]", "values": [
      {"measurement": "IL-17 spot forming cells", "setting": "[1]", "result": "230±10 spot forming cells per million"}
    ]},
    {"molecule": "B1", "values": [
      {"measurement": "OT-I T cell proliferation, BMDC pretreated with antigen", "setting": "[2]", "result": "initiated a stronger proliferative response"}
    ]},
    {"molecule": "B2", "values": [
      {"measurement": "release from the MPS scaffold", "setting": "[3]", "result": "released in a sustained manner followed by a burst release"},
      {"measurement": "CD11c+ DCs presenting SIINFEKL on MHC-I", "setting": "[4]", "result": "enhanced presentation"}
    ]}
  ]
}
